Laboratory results taken from publication PMC8941942, “Functional and Structural Characterization of Diverse NfsB Chloramphenicol Reductase Enzymes from Human Pathogens” (Microbiology Spectrum, 2022).

Experiments:
Ng FA1090 NfsB = target: T1, Ng FA1090 NfsB (Neisseria gonorrhoeae, UniProt Q5F9K5); assay type: cell-based; details: 100 µg/mL chloramphenicol, MDG medium, 37°C; compared with empty vector
T1 construct: gene NGO_0388

[1] = tested on: O=C(N[C@H](CO)[C@H](O)c1ccc([N+](=O)[O-])cc1)C(Cl)Cl; assay: purified protein; details: apparent, 1 mM NADPH, 1 µM FMN, 50 mM Tris pH 8, ~23°C
[2] = tested on: NC(=O)C1=CN([C@@H]2O[C@H](COP(=O)(O)OP(=O)(O)OC[C@H]3O[C@@H](n4cnc5c(N)ncnc54)[C@H](OP(=O)(O)O)[C@@H]3O)[C@@H](O)[C@H]2O)C=CC1; assay: purified protein; details: apparent, 1 mM chloramphenicol, 1 µM FMN, 50 mM Tris pH 8, ~23°C

T1 sequence (Q5F9K5 1-221): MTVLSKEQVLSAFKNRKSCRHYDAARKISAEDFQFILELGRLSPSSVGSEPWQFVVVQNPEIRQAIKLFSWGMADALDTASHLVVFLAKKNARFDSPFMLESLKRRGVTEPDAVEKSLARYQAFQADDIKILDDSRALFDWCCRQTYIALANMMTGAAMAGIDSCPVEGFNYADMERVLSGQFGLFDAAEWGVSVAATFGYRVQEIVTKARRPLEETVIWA

Compound	Bratton-Marshall assay of resting E. coli expressing nfsB (Ng FA1090 NfsB)	Km [1]	kcat [1] [s⁻¹]	kcat/Km [1] [M⁻¹ s⁻¹]	Km [2] [µM]	kcat [2] [s⁻¹]	kcat/Km [2] [M⁻¹ s⁻¹]
O=C(N[C@H](CO)[C@H](O)c1ccc([N+](=O)[O-])cc1)C(Cl)Cl [chloramphenicol]	Es. coli strains expressing H. influenzae or Neisseria nfsB genes showed robust signal						
Hi 86-028NP NfsB (Haemophilus influenzae 86-028NP)		200 ± 40 µM	8.7 ± 0.9	44500	21 ± 2	9.9 ± 0.6	478000
Nm Z2491 NfsB (Neisseria meningitidis Z2491)		1,300 ± 800 μM	8.9 ± 3	8120	22 ± 4	8.2 ± 0.3	388000
Hi KW20 NfsB (Haemophilus influenzae Rd KW20)		260 ± 20 µM	14 ± 0.3	55500	49 ± 6	13 ± 0.5	278000
